In article PMC10299379:

Legend:
[1] = molecular target: EBV LMP1-C (latent membrane protein 1, C-terminal domain, amino acids 186-387) (Epstein-Barr virus) (UniProt P03230); test: SPR; Biacore T200; LMP1-C and LMP2A-N immobilised on sensor chip CM5 as ligands; affibody molecules injected as analytes in serial dilutions; 1:1 Langmuir fit
[2] = molecular target: EBV LMP2A-N (latent membrane protein 2A, N-terminal domain, amino acids 1-119) (Epstein-Barr virus) (UniProt P13285); test: as above
UniProt P13285, sequence (P13285 1-119): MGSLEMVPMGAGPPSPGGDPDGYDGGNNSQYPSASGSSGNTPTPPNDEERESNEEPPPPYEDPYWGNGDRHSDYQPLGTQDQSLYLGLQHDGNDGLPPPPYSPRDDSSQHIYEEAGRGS

UniProt P03230, sequence (P03230 186-386): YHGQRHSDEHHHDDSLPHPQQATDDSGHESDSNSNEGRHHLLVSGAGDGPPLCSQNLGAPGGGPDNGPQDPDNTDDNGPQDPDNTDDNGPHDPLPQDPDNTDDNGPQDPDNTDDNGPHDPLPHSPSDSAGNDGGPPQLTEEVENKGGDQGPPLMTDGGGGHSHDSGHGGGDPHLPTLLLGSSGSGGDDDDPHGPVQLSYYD

“SPA-Z scaffold (ZWT) (domain or fragment)” showed a koff [1] of 0.00246 s⁻¹ and a koff [2] of 5.97e-05 s⁻¹.
